Measurements taken from patent US20230070886A1 (NOVAVAX, published 2023).

Target: His-tagged human angiotensin-converting enzyme 2 precursor (hACE2) (human, UniProt Q9BYF1 18-740)
Assay: bio-layer interferometry

Chain of His-tagged human angiotensin-converting enzyme 2 precursor (hACE2) (Q9BYF1 18-740 limits assumed): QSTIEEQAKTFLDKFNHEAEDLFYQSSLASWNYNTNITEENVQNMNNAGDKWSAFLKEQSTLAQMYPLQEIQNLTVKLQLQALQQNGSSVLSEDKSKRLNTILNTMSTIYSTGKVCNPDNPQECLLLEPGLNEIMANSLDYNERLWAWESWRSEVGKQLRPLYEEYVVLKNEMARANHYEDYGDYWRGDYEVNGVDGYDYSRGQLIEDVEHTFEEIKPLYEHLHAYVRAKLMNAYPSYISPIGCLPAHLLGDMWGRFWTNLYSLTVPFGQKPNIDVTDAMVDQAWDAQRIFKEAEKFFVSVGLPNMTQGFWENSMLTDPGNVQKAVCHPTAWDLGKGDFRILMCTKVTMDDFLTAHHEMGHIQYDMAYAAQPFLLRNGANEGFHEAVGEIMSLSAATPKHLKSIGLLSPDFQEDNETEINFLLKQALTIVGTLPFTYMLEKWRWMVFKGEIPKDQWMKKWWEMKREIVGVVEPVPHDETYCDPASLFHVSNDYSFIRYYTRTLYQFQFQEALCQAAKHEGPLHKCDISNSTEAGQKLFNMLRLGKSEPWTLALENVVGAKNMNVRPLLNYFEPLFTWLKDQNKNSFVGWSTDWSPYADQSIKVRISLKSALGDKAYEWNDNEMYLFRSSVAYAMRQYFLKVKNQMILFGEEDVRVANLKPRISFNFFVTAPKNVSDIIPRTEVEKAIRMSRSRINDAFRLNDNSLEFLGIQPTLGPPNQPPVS

B1: MERS S protein (other)
chain: YVDVGPDSVKSACIEVDIQQTFFDKTWPRPIDVSKADGIIYPQGRTYSNITITYQGLFPYQGDHGDMYVYSAGHATGTTPQKLFVANYSQDVKQFANGFVVRIGAAANSTGTVIISPSTSATIRKIYPAFMLGSSVGNFSDGKMGRFFNHTLVLLPDGCGTLLRAFYCILEPRSGNHCPAGNSYTSFATYHTPATDCSDGNYNRNASLNSFKEYFNLRNCTFMYTYNITEDEILEWFGITQTAQGVHLFSSRYVDLYGGNMFQFATLPVYDTIKYYSIIPHSIRSIQSDRKAWAAFYVYKLQPLTFLLDFSVDGYIRRAIDCGFNDLSQLHCSYESFDVESGVYSVSSFEAKPSGSVVEQAEGVECDFSPLLSGTPPQVYNFKRLVFTNCNYNLTKLLSLFSVNDFTCSQISPAAIASNCYSSLILDYFSYPLSMKSDLSVSSAGPISQFNYKQSFSNPTCLILATVPHNLTTITKPLKYSYINKCSRFLSDDRTEVPQLVNANQYSPCVSIVPSTVWEDGDYYRKQLSPLEGGGWLVASGSTVAMTEQLQMGFGITVQYGTDTNSVCPKLEFANDTKIASQLGNCVEYSLYGVSGRGVFQNCTAVGVRQQRFVYDAYQNLVGYYSDDGNYYCLRACVSVPVSVIYDKETKTHATLFGSVACEHISSTMSQYSRSTRSMLKRRDSTYGPLQTPVGCVLGLVNSSLFVEDCKLPLGQSLCALPDTPSTLTPRSVRSVPGEMRLASIAFNHPIQVDQLNSSYFKLSIPTNFSFGVTQEYIQTTIQKVTVDCKQYVCNGFQKCEQLLREYGQFCSKINQALHGANLRQDDSVRNLFASVKSSQSSPIIPGFGGDFNLTLLEPVSISTGSRSARSAIEDLLFDKVTIADPGYMQGYDDCMQQGPASARDLICAQYVAGYKVLPPLMDVNMEAAYTSSLLGSIAGVGWTAGLSSFAAIPFAQSIFYRLNGVGITQQVLSENQKLIANKFNQALGAMQTGFTTTNEAFHKVQDAVNNNAQALSKLASELSNTFGAISASIGDIIQRLDVLEQDAQIDRLINGRLTTLNAFVAQQLVRSESAALSAQLAKDKVNECVKAQSKRSGFCGQGTHIVSFVVNAPNGLYFMHVGYYPSNHIEVVSAYGLCDAANPTNCIAPVNGYFIKTNNTRIVDEWSYTGSSFYAPEPITSLNTKYVAPQVTYQNISTNLPPPLLGNSTGIDFQDELDEFFKNVSTSIPNFGSLTQINTTLLDLTYEMLSLQQVVKALNESYIDLKELGNYTYYNKWPWYIWLGFIAGLVALALCVFFILCCTGCGTNCMGKLKCNRCCDRYEEYDLEPHKVHVH
binding result: no binding
